Laboratory results as given in patent US20180263964A1 (MINERVA BIOTECHNOLOGIES, published 2018).

Columns and labels:
full-length MUC1 [1] = target: T1, full-length MUC1 (human, UniProt P15941 24-1255, limits assumed); assay: co-immunoprecipitation gel stripped and re-probed with an anti-MUC1* (PSMGFR) antibody
T1 construct: also called full-length MUC1 Receptor; Mucin 1 precursor

full-length MUC1 [2] = target: T1, full-length MUC1; assay: co-immunoprecipitation with Ab5 from human iPS and HES cell lysates, Western blot for NME7

T1 sequence (P15941 other isoform, or with tags, fused parts or gaps limits assumed): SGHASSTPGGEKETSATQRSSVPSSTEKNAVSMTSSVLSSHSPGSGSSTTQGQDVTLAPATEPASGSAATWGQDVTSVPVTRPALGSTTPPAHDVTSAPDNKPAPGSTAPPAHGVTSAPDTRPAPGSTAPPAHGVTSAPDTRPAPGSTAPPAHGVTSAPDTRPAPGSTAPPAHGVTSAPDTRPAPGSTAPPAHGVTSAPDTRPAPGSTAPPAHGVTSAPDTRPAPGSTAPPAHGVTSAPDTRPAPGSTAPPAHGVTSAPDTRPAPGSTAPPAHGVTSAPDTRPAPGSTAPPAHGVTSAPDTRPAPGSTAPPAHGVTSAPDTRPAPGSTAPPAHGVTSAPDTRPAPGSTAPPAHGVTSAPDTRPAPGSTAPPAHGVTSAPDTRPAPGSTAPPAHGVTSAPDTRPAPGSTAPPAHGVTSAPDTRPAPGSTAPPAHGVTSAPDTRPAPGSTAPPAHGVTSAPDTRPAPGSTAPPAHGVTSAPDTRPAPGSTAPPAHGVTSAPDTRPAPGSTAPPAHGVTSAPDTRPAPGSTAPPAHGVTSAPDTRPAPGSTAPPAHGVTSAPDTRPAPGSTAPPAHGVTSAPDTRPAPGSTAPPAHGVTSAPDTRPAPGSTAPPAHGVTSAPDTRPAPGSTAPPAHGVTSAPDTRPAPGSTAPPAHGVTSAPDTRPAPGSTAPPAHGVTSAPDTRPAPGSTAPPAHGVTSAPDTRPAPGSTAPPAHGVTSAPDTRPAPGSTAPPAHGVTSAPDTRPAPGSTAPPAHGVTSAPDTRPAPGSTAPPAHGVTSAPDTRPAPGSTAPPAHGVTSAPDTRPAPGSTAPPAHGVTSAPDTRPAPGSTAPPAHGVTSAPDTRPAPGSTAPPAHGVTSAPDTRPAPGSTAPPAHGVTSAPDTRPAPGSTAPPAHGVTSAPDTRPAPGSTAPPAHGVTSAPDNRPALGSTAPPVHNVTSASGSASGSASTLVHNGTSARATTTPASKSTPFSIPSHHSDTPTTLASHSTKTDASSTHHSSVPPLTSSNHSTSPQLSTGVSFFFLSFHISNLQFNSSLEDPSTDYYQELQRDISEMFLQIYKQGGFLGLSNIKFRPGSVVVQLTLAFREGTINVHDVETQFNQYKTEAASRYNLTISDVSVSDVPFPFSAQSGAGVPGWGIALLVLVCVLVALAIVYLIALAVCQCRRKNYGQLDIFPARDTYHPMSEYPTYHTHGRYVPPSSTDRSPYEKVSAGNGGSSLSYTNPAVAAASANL

B1: NME7AB (ligand)
chain: MEKTLALIKPDAISKAGEIIEIINKAGFTITKLKMMMLSRKEALDFHVDHQSRPFFNELIQFITTGPIIAMEILRDDAICEWKRLLGPANSGVARTDASESIRALFGTDGIRNAAHGPDSFASAAREMELFFPSSGGCGPANTAKFTNCTCCIVKPHAVSEGLLGKILMAIRDAGFEISAMQMFNMDRVNVEEFYEVYKGVVTEYHDMVTEMYSGPCVAMEIQQNNATKTFREFCGPADPEIARHLRPGTLRAIFGKTKIQNAVHCTDLPEDGLLEVQYFFKILDN
notes: In the co-immunoprecipitations and Western blots this is the endogenous 33 kDa species of cell lysates; also called human NME7-AB; 33 kDa NME7-reactive species
full-length MUC1 [1]
  binding result: no binding

B2: full-length NME7, 42 kDa (other, UniProt Q9Y5B8 1-376, looked up)
chain: MNHSERFVFIAEWYDPNASLLRRYELLFYPGDGSVEMHDVKNHRTFLKRTKYDNLHLEDLFIGNKVNVFSRQLVLIDYGDQYTARQLGSRKEKTLALIKPDAISKAGEIIEIINKAGFTITKLKMMMLSRKEALDFHVDHQSRPFFNELIQFITTGPIIAMEILRDDAICEWKRLLGPANSGVARTDASESIRALFGTDGIRNAAHGPDSFASAAREMELFFPSSGGCGPANTAKFTNCTCCIVKPHAVSEGLLGKILMAIRDAGFEISAMQMFNMDRVNVEEFYEVYKGVVTEYHDMVTEMYSGPCVAMEIQQNNATKTFREFCGPADPEIARHLRPGTLRAIFGKTKIQNAVHCTDLPEDGLLEVQYFFKILDN
notes: Endogenous 42 kDa protein in cell lysates; also called native NME7
full-length MUC1 [2]
  binding result: no binding

B3: NME7-X1 (ligand)
chain: MMMLSRKEALDFHVDHQSRPFFNELIQFITTGPIIAMEILRDDAICEWKRLLGPANSGVARTDASESIRALFGTDGIRNAAHGPDSFASAAREMELFFPSSGGCGPANTAKFTNCTCCIVKPHAVSEGLLGKILMAIRDAGFEISAMQMFNMDRVNVEEFYEVYKGVVTEYHDMVTEMYSGPCVAMEIQQNNATKTFREFCGPADPEIARHLRPGTLRAIFGKTKIQNAVHCTDLPEDGLLEVQYFFKILDN
notes: Alternative splice isoform of NME7; In the blots it is the endogenous 30 kDa species of cell lysates; also called human NME7-X1; 30 kDa NME7-reactive species
full-length MUC1 [1]
  binding result: no binding
